Consider four proteins from PMC8183112.

Data set [1] is described as follows: western blot, relative β1 level. The following applies: glycan lost; control: wild-type β1, untreated.
Data set [2] is described as follows: whole-cell patch clamp, current density. The note with it: glycan lost; control: wild-type BK (α+β1). In general terms: Patch clamp records ionic current or voltage across a cell membrane.
Data set [3] in a line: whole-cell G-V curve, Boltzmann fit, 300 nM Ca2+. The following applies: glycan lost; control: wild-type BK (α+β1).
A short description of data set [4]: whole-cell patch clamp, 100 nM IbTx, 300 nM Ca2+. The following applies: glycan lost; control: wild-type BK (α+β1).
Data set [5] can be described thus: whole-cell patch clamp, 400 nM martentoxin, 300 nM Ca2+. The note with it: glycan lost; control: wild-type BK (α+β1).
Data set [6] can be described thus: whole-cell patch clamp, 400 nM martentoxin, no cytoplasmic Ca2+. The following applies: glycan lost; control: wild-type BK (α+β1).
Data set [7] in a line: activation time constant, single exponential fit, +50 to +120 mV. The following applies: glycan lost; control: wild-type BK (α+β1).
Data set [8] in a line: whole-cell patch clamp, 100 nM IbTX, 300 nM Ca2+. The following applies: glycan lost; control: untreated wild-type BK (α+β1).
Data set [9] can be described thus: whole-cell patch clamp, 400 nM IbTX, 300 nM Ca2+. The following applies: glycan lost; control: untreated wild-type BK (α+β1).
The nature of data set [10]: whole-cell patch clamp, 100 nM MarTX, no cytoplasmic Ca2+. The following applies: glycan lost; control: untreated wild-type BK (α+β1).
Data set [11] can be described thus: whole-cell patch clamp, 400 nM MarTX, no cytoplasmic Ca2+. The following applies: glycan lost; control: untreated wild-type BK (α+β1).

B1: BK channel β1 subunit: N80Q/N142Q (protein)
parent chain: MVKKLVMAQKRGETRALCLGVTMVVCAVITYYILVTTVLPLYQKSVWTQESKCHLIETNIRDQEELKGKKVPQYPCLWVNVSAAGRWAVLYHTEDTRDQNQQCSYIPGSVDNYQTARADVEKVRAKFQEQQVFYCFSAPRGNETSVLFQRLYGPQALLFSLFWPTFLLTGGLLIIAMVKSNQYLSILAAQK
For the protein B1, in data set [1], the expression_or_secretion result was “no change”. Moreover, the “other: channel current” value in [2] was “no change”. The “other: voltage dependence of activation, other: V1/2” value in data set [3] is listed as “no change, 65.35 ± 1.48 vs 66.52 ± 1.47, slope 22.89 ± 1.24 vs 22.55 ± 1.21”. Further, the “other: toxin inhibition of channel current, other: fractional current remaining (If)” value is on record as “increases, 0.46 ± 0.04 vs 0.92 ± 0.01” in data set [4] and “increases, 0.72 ± 0.099 vs 0.97 ± 0.018” in data set [6]. In addition, in data set [5], the “other: toxin enhancement of channel current, other: fractional current remaining (If)” value was “abolishes, 1.04 ± 0.02 vs 1.13 ± 0.01”. Besides, in data set [7], the “other: channel activation kinetics” value is reported as “decreases”.

B2: BK channel β1 subunit: N80A/N142A (protein)
parent chain: B1 parent chain
B2: the expression_or_secretion entry in data set [1] was “no change”. Further, the “other: channel current” value in data set [2] was “no change”. In addition, the “other: toxin inhibition of channel current, other: fractional current remaining (If)” value is “increases, 0.46 ± 0.04 vs 0.92 ± 0.01” in data set [4] and “increases, 0.71 ± 0.064 vs 0.97 ± 0.018” in data set [6]. In addition, the “other: toxin enhancement of channel current, other: fractional current remaining (If)” value in [5] is recorded as “abolishes, 0.99 ± 0.02 vs 1.13 ± 0.01”.

B3: BK channel β1 subunit: PNGase F (protein)
parent chain: B1 parent chain
In the case of B3, the “other: toxin inhibition of channel current, other: fractional current remaining (If)” value is reported as “increases, 0.54 ± 0.05 vs 0.89 ± 0.01” in [8]; “increases, 0.43 ± 0.06 vs 0.65 ± 0.03” in data set [9]; “increases, 0.83 ± 0.03 vs 1.00 ± 0.03” in data set [10]; “increases, 0.63 ± 0.02 vs 1.00 ± 0.03” in [11].

B4: BK channel β1 subunit: tunicamycin (protein)
parent chain: B1 parent chain
As to B4, the expression_or_secretion entry in [1] is “no change”.
